Results on five molecules are retold here after PMC10862009, “Generation of antibodies to an extracellular region of the transporters Glut1/Glut4 by immunization with a designed antigen” (The Journal of Biological Chemistry, 2024).

The target of assay [1] is T1, Anti-Glut4 VHH (alpaca).
T1 construct: alpaca VHH; selected by phage display from an alpaca immunized with Adhiron-Glut4; also called the VHH; anti-Glut4 VHH antibody; source: E. coli BL21(DE3), purified (Ni-NTA, SEC)
In words: ITC; 10 uM VHH in the cell; 100 uM fusion protein (or scaffold protein Adhiron-WT) titrated, 20 injections of 2 ul at intervals of 120 s; PBS pH 7.4, 25 °C; n = 3, mean ± s.e.m. The conditions noted are these: both partners purified. A general note: Isothermal titration calorimetry measures the heat released or taken up as one component is titrated into another.

In assay [2] the target is T2, full-length Glut1 as a recombinant protein (Homo sapiens, UniProt P11166).
T2 construct: glucose transporter 1 (Glut1), human, full length; also called glucose transporter 1; full-length Glut1 in micelles; source: High Five insect cells (baculovirus), purified (solubilised with n-dodecyl-β-D-maltopyranoside, Ni-NTA, SEC); not shown: His10, C-terminal, kept
In words: SPR; Biacore 8K; His-tagged Glut1 captured by anti-His antibodies on a CM5 chip; VHH injected at 123 nM-10 μM, single-cycle kinetics; 25 mM Mes-NaOH pH 6.0, 150 mM NaCl, 5% glycerol, 0.05% n-dodecyl-β-D-maltoside, 25 °C. As to conditions: both partners purified.

Assay [3] concerns the target T3, Fc-VHH antibody of VHH4 (alpaca).
T3 construct: as the VHH of m6; form used for flow cytometry; source: ExpiCHO, transfected, purified from the supernatant (rProtein A Sepharose, SEC); not shown: Fc (Fc region of trastuzumab), C-terminal, kept
In words: flow cytometry on cells; Expi293 cells transfected with Glut1 against empty vector; 1 μM Fc-VHH with Alexa Fluor 488 anti-human IgG, on ice 60 min. As to conditions: one partner purified. Background: A flow cytometer gives signals particle by particle.

In assay [4] the target is T4, Fc-VHH antibody of VHH5 (alpaca).
T4 construct: as the VHH of m7; form used for flow cytometry; source: ExpiCHO, transfected, purified from the supernatant (rProtein A Sepharose, SEC); not shown: Fc (Fc region of trastuzumab), C-terminal, kept
The description is as above. The conditions noted are these: one partner purified.

In assay [5] the target is T3, Fc-VHH antibody of VHH4. In words: flow cytometry on cells; HCT116 cells with endogenous Glut1; 1 μM Fc-VHH with Alexa Fluor 488 anti-human IgG, on ice 60 min. As to conditions: one partner purified.
For assay [6], the target named is T4, Fc-VHH antibody of VHH5. The description is as above. The conditions noted are these: one partner purified.

T1 sequence (VHH, as listed by the source): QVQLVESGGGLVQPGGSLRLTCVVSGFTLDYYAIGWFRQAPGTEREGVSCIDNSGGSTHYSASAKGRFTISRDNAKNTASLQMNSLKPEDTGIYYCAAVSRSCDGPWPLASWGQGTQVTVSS

B1: Adhiron-Glut4 (other)
chain: ENSLEIEELARFAVDEHNKKENALLEFVRVVKAKEQGGGGSAPQKVIEQSYNETWLGRQGPEGPSSIPPGTLTTLWALSVGGGGSTMYYLTLEAKDGGKKKLYEAKVWVKPWENFKELQEFKPV
modifications: Limits of the Glut4 graft are not printed: 47-85 is the homologue of Glut1 35-69 (two extracellular helices). Graft site is assumed to be as in Adhiron-Glut1: loop 47VVAG50 (entity 37-40, offset 10) …
As usually defined, the Kd is the free concentration of one partner at which half of the binding sites on the other are occupied at equilibrium, for simple one-to-one binding. A low value points to tighter binding. Broadly, the stoichiometry N is the number of molecules, sites or subunits per partner or assembly. Turning to B1, in assay [1], the Kd was 3.67 nM and the “stoichiometry N” value stood at 1.02.

B2: VHH5 with a FLAG tag (VHH)
VHH: ELQLVESGGGLVQPGGSLRLSCAVSGVAFEDYAIGWFRQAPGKEREGVSCISSGSGSRIYTDSVKGRFTVSRDNPKNTVDLQMDSLKPEDTAVYYCAAERDYYCSGYPTYRAFSSWGEGTQVTVSS
notes: as the VHH of m7; Form prepared for SPR; source: E. coli BL21(DE3), purified (DDDDK-tagged Protein Purification Gel, SEC)
Consider B2, for which the binding result in assay [2] is on record as “binds”.

B3: VHH4 with a FLAG tag (VHH)
VHH: EVQLVESGGGLVQPGGSLRLSCAASGFTLDRYAIGWFRQAPGKEREGISCISSGSGSRVYADSVKGRFTVSRDNVENTVSLEMNSLKPEDTAVYYCAAEADYYCSGYPIYRKFGSWGQGTQVTVSS
notes: as the VHH of m6; Form prepared for SPR; source: E. coli BL21(DE3), purified (DDDDK-tagged Protein Purification Gel, SEC)
For B3, the binding result in assay [2] is “binds”.

B4: Glut1 overexpressed on Expi293 cells (natural protein, human, UniProt P11166 1-492, looked up)
chain: MEPSSKKLTGRLMLAVGGAVLGSLQFGYNTGVINAPQKVIEEFYNQTWVHRYGESILPTTLTTLWSLSVAIFSVGGMIGSFSVGLFVNRFGRRNSMLMMNLLAFVSAVLMGFSKLGKSFEMLILGRFIIGVYCGLTTGFVPMYVGEVSPTALRGALGTLHQLGIVVGILIAQVFGLDSIMGNKDLWPLLLSIIFIPALLQCIVLPFCPESPRFLLINRNEENRAKSVLKKLRGTADVTHDLQEMKEESRQMMREKKVTILELFRSPAYRQPILIAVVLQLSQQLSGINAVFYYSTSIFEKAGVQQPVYATIGSGIVNTAFTVVSLFVVERAGRRTLHLIGLAGMAGCAILMTIALALLEQLPWMSYLSIVAIFGFVAFFEVGPGPIPWFIVAELFSQGPRPAAIAVAGFSNWTSNFIVGMCFQYVEQLCGPYVFIIFTVLLVLFFIFTYFKVPETKGRTFDEIASGFRQGGASQSDKTPEELFHPLGADSQV
notes: glucose transporter 1 (Glut1), human, on the surface of transfected Expi293 cells; also called Glut1 on the cell membrane; overexpressed Glut1; source: Expi293, transfected (pcDNA 3.4), on cells
For B4, the binding result in assay [3] and in assay [4] was “binds” each time.

B5: endogenous Glut1 on HCT116 cells (natural protein, human (endogenous in HCT116), UniProt P11166 1-492, looked up)
chain: B4 chain
notes: glucose transporter 1 (Glut1), endogenous on the surface of HCT116 colon cancer cells; source: endogenous, on HCT116 cells
As to B5, the binding result in assay [5] and in assay [6] was “binds” in each case.
